In paper PMC4351158 (Structure (London, England : 1993), 2015):

Each molecule was assayed on periplasmic domain of RseA (assay: Cleavage of 35S-labeled RseA periplasmic domain by DegS variants). Settings: H198P background; with YYF; % of H198P parent.
Assay type: biochemical, E. coli

| Molecule | YYF-stimulated cleavage activity relative to H198P parental enzyme |
| --- | --- |
| R178A/H198P (protein, UniProt P0AEE3 1-355, looked up, variant R178A H198P) Serine endoprotease DegS: MFVKLLRSVAIGLIVGAILLVAMPSLRSLNPLSTPQFDSTDETPASYNLAVRRAAPAVVNVYNRGLNTNSHNQLEIRTLGSGVIMDQRGYIITNKHVINDADQIIVALQDGRVFEALLVGSDSLTDLAVLKINATGGLPTIPINARRVPHIGDVVLAIGNPYNLGQTITQGIISATGAIGLNPTGRQNFLQTDASINPGNSGGALVNSLGELMGINTLSFDKSNDGETPEGIGFAIPFQLATKIMDKLIRDGRVIRGYIGIGGREIAPLHAQGGGIDQLQGIVVNEVSPDGPAANAGIQVNDLIISVDNKPAISALETMDQVAEIRPGSVIPVVVMRDDKQLTLQVTIQEYPATN | 9–24% |
| F220A/H198P (protein, UniProt P0AEE3 1-355, looked up, variant F220A H198P) Serine endoprotease DegS: MFVKLLRSVAIGLIVGAILLVAMPSLRSLNPLSTPQFDSTDETPASYNLAVRRAAPAVVNVYNRGLNTNSHNQLEIRTLGSGVIMDQRGYIITNKHVINDADQIIVALQDGRVFEALLVGSDSLTDLAVLKINATGGLPTIPINARRVPHIGDVVLAIGNPYNLGQTITQGIISATGRIGLNPTGRQNFLQTDASINPGNSGGALVNSLGELMGINTLSADKSNDGETPEGIGFAIPFQLATKIMDKLIRDGRVIRGYIGIGGREIAPLHAQGGGIDQLQGIVVNEVSPDGPAANAGIQVNDLIISVDNKPAISALETMDQVAEIRPGSVIPVVVMRDDKQLTLQVTIQEYPATN | 9–24% |

Same assay, conditions: WT background; compared to wild-type DegS

| Molecule | YYF-stimulated cleavage activity, in words |
| --- | --- |
| R178A: DegS variant R178A (protein, left off: His6, N-terminal, state not stated) RSLNPLSTPQFDSTDETPASYNLAVRRAAPAVVNVYNRGLNTNSHNQLEIRTLGSGVIMDQRGYIITNKHVINDADQIIVALQDGRVFEALLVGSDSLTDLAVLKINATGGLPTIPINARRVPHIGDVVLAIGNPYNLGQTITQGIISATGAIGLNPTGRQNFLQTDASINHGNSGGALVNSLGELMGINTLSFDKSNDGETPEGIGFAIPFQLATKIMDKLIRDGRVIRGYIGIGGREIAPLHAQGGGIDQLQGIVVNEVSPDGPAANAGIQVNDLIISVDNKPAISALETMDQVAEIRPGSVIPVVVMRDDKQLTLQVTIQEYPATN | almost no cleavage activity |
| F220A: DegS variant F220A (protein, left off: His6, N-terminal, state not stated) RSLNPLSTPQFDSTDETPASYNLAVRRAAPAVVNVYNRGLNTNSHNQLEIRTLGSGVIMDQRGYIITNKHVINDADQIIVALQDGRVFEALLVGSDSLTDLAVLKINATGGLPTIPINARRVPHIGDVVLAIGNPYNLGQTITQGIISATGRIGLNPTGRQNFLQTDASINHGNSGGALVNSLGELMGINTLSADKSNDGETPEGIGFAIPFQLATKIMDKLIRDGRVIRGYIGIGGREIAPLHAQGGGIDQLQGIVVNEVSPDGPAANAGIQVNDLIISVDNKPAISALETMDQVAEIRPGSVIPVVVMRDDKQLTLQVTIQEYPATN | almost no cleavage activity |

Same assay, conditions: WT background; with YYF; % of wild-type activity

| Molecule | YYF-stimulated cleavage activity relative to wild type |
| --- | --- |
| T169A: DegS variant T169A (protein, left off: His6, N-terminal, state not stated) RSLNPLSTPQFDSTDETPASYNLAVRRAAPAVVNVYNRGLNTNSHNQLEIRTLGSGVIMDQRGYIITNKHVINDADQIIVALQDGRVFEALLVGSDSLTDLAVLKINATGGLPTIPINARRVPHIGDVVLAIGNPYNLGQTIAQGIISATGRIGLNPTGRQNFLQTDASINHGNSGGALVNSLGELMGINTLSFDKSNDGETPEGIGFAIPFQLATKIMDKLIRDGRVIRGYIGIGGREIAPLHAQGGGIDQLQGIVVNEVSPDGPAANAGIQVNDLIISVDNKPAISALETMDQVAEIRPGSVIPVVVMRDDKQLTLQVTIQEYPATN | less than 2% |
| Q191A: DegS variant Q191A (protein, left off: His6, N-terminal, state not stated) RSLNPLSTPQFDSTDETPASYNLAVRRAAPAVVNVYNRGLNTNSHNQLEIRTLGSGVIMDQRGYIITNKHVINDADQIIVALQDGRVFEALLVGSDSLTDLAVLKINATGGLPTIPINARRVPHIGDVVLAIGNPYNLGQTITQGIISATGRIGLNPTGRQNFLATDASINHGNSGGALVNSLGELMGINTLSFDKSNDGETPEGIGFAIPFQLATKIMDKLIRDGRVIRGYIGIGGREIAPLHAQGGGIDQLQGIVVNEVSPDGPAANAGIQVNDLIISVDNKPAISALETMDQVAEIRPGSVIPVVVMRDDKQLTLQVTIQEYPATN | less than 2% |
| L164A: DegS variant L164A (protein, left off: His6, N-terminal, state not stated) RSLNPLSTPQFDSTDETPASYNLAVRRAAPAVVNVYNRGLNTNSHNQLEIRTLGSGVIMDQRGYIITNKHVINDADQIIVALQDGRVFEALLVGSDSLTDLAVLKINATGGLPTIPINARRVPHIGDVVLAIGNPYNAGQTITQGIISATGRIGLNPTGRQNFLQTDASINHGNSGGALVNSLGELMGINTLSFDKSNDGETPEGIGFAIPFQLATKIMDKLIRDGRVIRGYIGIGGREIAPLHAQGGGIDQLQGIVVNEVSPDGPAANAGIQVNDLIISVDNKPAISALETMDQVAEIRPGSVIPVVVMRDDKQLTLQVTIQEYPATN | less than 2% |
| P161A: DegS variant P161A (protein, left off: His6, N-terminal, state not stated) RSLNPLSTPQFDSTDETPASYNLAVRRAAPAVVNVYNRGLNTNSHNQLEIRTLGSGVIMDQRGYIITNKHVINDADQIIVALQDGRVFEALLVGSDSLTDLAVLKINATGGLPTIPINARRVPHIGDVVLAIGNAYNLGQTITQGIISATGRIGLNPTGRQNFLQTDASINHGNSGGALVNSLGELMGINTLSFDKSNDGETPEGIGFAIPFQLATKIMDKLIRDGRVIRGYIGIGGREIAPLHAQGGGIDQLQGIVVNEVSPDGPAANAGIQVNDLIISVDNKPAISALETMDQVAEIRPGSVIPVVVMRDDKQLTLQVTIQEYPATN | less than 2% |
| I232A: DegS variant I232A (protein, left off: His6, N-terminal, state not stated) RSLNPLSTPQFDSTDETPASYNLAVRRAAPAVVNVYNRGLNTNSHNQLEIRTLGSGVIMDQRGYIITNKHVINDADQIIVALQDGRVFEALLVGSDSLTDLAVLKINATGGLPTIPINARRVPHIGDVVLAIGNPYNLGQTITQGIISATGRIGLNPTGRQNFLQTDASINHGNSGGALVNSLGELMGINTLSFDKSNDGETPEGAGFAIPFQLATKIMDKLIRDGRVIRGYIGIGGREIAPLHAQGGGIDQLQGIVVNEVSPDGPAANAGIQVNDLIISVDNKPAISALETMDQVAEIRPGSVIPVVVMRDDKQLTLQVTIQEYPATN | less than 2% |
| Y162A: DegS variant Y162A (protein, left off: His6, N-terminal, state not stated) RSLNPLSTPQFDSTDETPASYNLAVRRAAPAVVNVYNRGLNTNSHNQLEIRTLGSGVIMDQRGYIITNKHVINDADQIIVALQDGRVFEALLVGSDSLTDLAVLKINATGGLPTIPINARRVPHIGDVVLAIGNPANLGQTITQGIISATGRIGLNPTGRQNFLQTDASINHGNSGGALVNSLGELMGINTLSFDKSNDGETPEGIGFAIPFQLATKIMDKLIRDGRVIRGYIGIGGREIAPLHAQGGGIDQLQGIVVNEVSPDGPAANAGIQVNDLIISVDNKPAISALETMDQVAEIRPGSVIPVVVMRDDKQLTLQVTIQEYPATN | less than 2% |
| T167V: DegS variant T167V (protein, left off: His6, N-terminal, state not stated) RSLNPLSTPQFDSTDETPASYNLAVRRAAPAVVNVYNRGLNTNSHNQLEIRTLGSGVIMDQRGYIITNKHVINDADQIIVALQDGRVFEALLVGSDSLTDLAVLKINATGGLPTIPINARRVPHIGDVVLAIGNPYNLGQVITQGIISATGRIGLNPTGRQNFLQTDASINHGNSGGALVNSLGELMGINTLSFDKSNDGETPEGIGFAIPFQLATKIMDKLIRDGRVIRGYIGIGGREIAPLHAQGGGIDQLQGIVVNEVSPDGPAANAGIQVNDLIISVDNKPAISALETMDQVAEIRPGSVIPVVVMRDDKQLTLQVTIQEYPATN | less than 2% |
| N197A: DegS variant N197A (protein, left off: His6, N-terminal, state not stated) RSLNPLSTPQFDSTDETPASYNLAVRRAAPAVVNVYNRGLNTNSHNQLEIRTLGSGVIMDQRGYIITNKHVINDADQIIVALQDGRVFEALLVGSDSLTDLAVLKINATGGLPTIPINARRVPHIGDVVLAIGNPYNLGQTITQGIISATGRIGLNPTGRQNFLQTDASIAHGNSGGALVNSLGELMGINTLSFDKSNDGETPEGIGFAIPFQLATKIMDKLIRDGRVIRGYIGIGGREIAPLHAQGGGIDQLQGIVVNEVSPDGPAANAGIQVNDLIISVDNKPAISALETMDQVAEIRPGSVIPVVVMRDDKQLTLQVTIQEYPATN | less than 2% |
| F234A: DegS variant F234A (protein, left off: His6, N-terminal, state not stated) RSLNPLSTPQFDSTDETPASYNLAVRRAAPAVVNVYNRGLNTNSHNQLEIRTLGSGVIMDQRGYIITNKHVINDADQIIVALQDGRVFEALLVGSDSLTDLAVLKINATGGLPTIPINARRVPHIGDVVLAIGNPYNLGQTITQGIISATGRIGLNPTGRQNFLQTDASINHGNSGGALVNSLGELMGINTLSFDKSNDGETPEGIGAAIPFQLATKIMDKLIRDGRVIRGYIGIGGREIAPLHAQGGGIDQLQGIVVNEVSPDGPAANAGIQVNDLIISVDNKPAISALETMDQVAEIRPGSVIPVVVMRDDKQLTLQVTIQEYPATN | less than 2% |
